Measured values as given in US20060241051A1 (Takeda / Millennium, published 2006).
Numbered stars: 1 amine (or outer) side, 2 acyl side, 3 side chain; on linkers, the order of the positions; unused ones are H or OH. Square brackets hold non-standard residues; d marks the D form. Ends that are not written are not given here. * marks the point of attachment. Ala(2-Qui) = 2-quinolylalanine, O=C([C@H](Cc1ccc2ccccc2n1)N[*:1])[*:2]; Phe(4-F) = N[C@@H](Cc1ccc(F)cc1)C(=O)O; Arg(Me) = CNC(=N)NCCC[C@H](N)C(=O)O; Fmoc = O=C(OCC1c2ccccc2-c2ccccc21)*; Lys(Me2) = CN(C)CCCC[C@H](N)C(=O)O; 4Pal = N[C@@H](Cc1ccncc1)C(=O)O; d3Pal = N[C@H](Cc1cccnc1)C(=O)O; d4Pal = N[C@H](Cc1ccncc1)C(=O)O; Cha = N[C@@H](CC1CCCCC1)C(=O)O; Orn = NCCC[C@H](N)C(=O)O; Boc = CC(C)(C)OC(=O)*; azaGly = NNC(=O)O

B1: Compound No. 170: [D-Tyr1,Ser3,Arg(Me)9]MS10 (peptide)
peptide: [dY]NSNSFGL[Arg(Me)]F-NH2
modifications: N-terminus assumed
SMILES: CNC(=N)NCCC[C@H](NC(=O)[C@H](CC(C)C)NC(=O)CNC(=O)[C@H](Cc1ccccc1)NC(=O)[C@H](CO)NC(=O)[C@H](CC(N)=O)NC(=O)[C@H](CO)NC(=O)[C@H](CC(N)=O)NC(=O)[C@H](N)Cc1ccc(O)cc1)C(=O)N[C@@H](Cc1ccccc1)C(N)=O
B2: Compound No. 169: [D-Tyr1,Ala3,Arg(Me)9]MS10 (peptide)
peptide: [dY]NANSFGL[Arg(Me)]F-NH2
modifications: N-terminus assumed
SMILES: CNC(=N)NCCC[C@H](NC(=O)[C@H](CC(C)C)NC(=O)CNC(=O)[C@H](Cc1ccccc1)NC(=O)[C@H](CO)NC(=O)[C@H](CC(N)=O)NC(=O)[C@H](C)NC(=O)[C@H](CC(N)=O)NC(=O)[C@H](N)Cc1ccc(O)cc1)C(=O)N[C@@H](Cc1ccccc1)C(N)=O
B3: Compound No. 174: [D-Tyr1,Arg(Me)9,Trp10]MS10 (peptide)
peptide: [dY]NWNSFGL[Arg(Me)]W-NH2
modifications: N-terminus assumed
SMILES: CNC(=N)NCCC[C@H](NC(=O)[C@H](CC(C)C)NC(=O)CNC(=O)[C@H](Cc1ccccc1)NC(=O)[C@H](CO)NC(=O)[C@H](CC(N)=O)NC(=O)[C@H](Cc1c[nH]c2ccccc12)NC(=O)[C@H](CC(N)=O)NC(=O)[C@H](N)Cc1ccc(O)cc1)C(=O)N[C@@H](Cc1c[nH]c2ccccc12)C(N)=O
B4: Compound No. 291: [D-Pya(3)1,D-Tyr2,Cha3,AzaGly7,Arg(Me)9]MS10 (peptide)
peptide: [d3Pal][dY][Cha]NSF[azaGly]L[Arg(Me)]F-NH2
modifications: N-terminus assumed
SMILES: CNC(=N)NCCC[C@H](NC(=O)[C@H](CC(C)C)NC(=O)NNC(=O)[C@H](Cc1ccccc1)NC(=O)[C@H](CO)NC(=O)[C@H](CC(N)=O)NC(=O)[C@H](CC1CCCCC1)NC(=O)[C@@H](Cc1ccc(O)cc1)NC(=O)[C@H](N)Cc1cccnc1)C(=O)N[C@@H](Cc1ccccc1)C(N)=O
B5: Compound No. 306: [D-Pya(4)1,D-Asn2,Cha3,AzaGly7,Arg(Me)9]MS10 (peptide)
peptide: [d4Pal][dN][Cha]NSF[azaGly]L[Arg(Me)]F-NH2
modifications: N-terminus assumed
SMILES: CNC(=N)NCCC[C@H](NC(=O)[C@H](CC(C)C)NC(=O)NNC(=O)[C@H](Cc1ccccc1)NC(=O)[C@H](CO)NC(=O)[C@H](CC(N)=O)NC(=O)[C@H](CC1CCCCC1)NC(=O)[C@@H](CC(N)=O)NC(=O)[C@H](N)Cc1ccncc1)C(=O)N[C@@H](Cc1ccccc1)C(N)=O
B6: Compound No. 314: [Orn9]MS10 (peptide)
peptide: YNWNSFGL[Orn]F-NH2
modifications: N-terminus assumed
SMILES: CC(C)C[C@H](NC(=O)CNC(=O)[C@H](Cc1ccccc1)NC(=O)[C@H](CO)NC(=O)[C@H](CC(N)=O)NC(=O)[C@H](Cc1c[nH]c2ccccc12)NC(=O)[C@H](CC(N)=O)NC(=O)[C@@H](N)Cc1ccc(O)cc1)C(=O)N[C@@H](CCCN)C(=O)N[C@@H](Cc1ccccc1)C(N)=O
B7: Compound No. 317: [D-Tyr1,D-Asn2,Pya(4) 3,AzaGly7,Arg(Me)9,Phe(4F)10]MS10 (peptide)
peptide: [dY][dN][4Pal]NSF[azaGly]L[Arg(Me)][Phe(4-F)]-NH2
modifications: N-terminus assumed
SMILES: CNC(=N)NCCC[C@H](NC(=O)[C@H](CC(C)C)NC(=O)NNC(=O)[C@H](Cc1ccccc1)NC(=O)[C@H](CO)NC(=O)[C@H](CC(N)=O)NC(=O)[C@H](Cc1ccncc1)NC(=O)[C@@H](CC(N)=O)NC(=O)[C@H](N)Cc1ccc(O)cc1)C(=O)N[C@@H](Cc1ccc(F)cc1)C(N)=O
B8: Compound No. 301: [D-Tyr1,Ala(2-Qui) 3,AzaGly7,Arg(Me)9]MS10 (peptide)
peptide: [dY]N[Ala(2-Qui)]NSF[azaGly]L[Arg(Me)]F-NH2
modifications: N-terminus assumed
SMILES: CNC(=N)NCCC[C@H](NC(=O)[C@H](CC(C)C)NC(=O)NNC(=O)[C@H](Cc1ccccc1)NC(=O)[C@H](CO)NC(=O)[C@H](CC(N)=O)NC(=O)[C@H](Cc1ccc2ccccc2n1)NC(=O)[C@H](CC(N)=O)NC(=O)[C@H](N)Cc1ccc(O)cc1)C(=O)N[C@@H](Cc1ccccc1)C(N)=O
B9: Compound No. 296: [6Ψ7,CSNH,D-Tyr1,Arg(Me)9]MS10 (peptide)
peptide: [dY]NWNSFGL[Arg(Me)]F-NH2
modifications: also: Phe6-Gly7 thioamide (CSNH)
notes: also called [6y7,CSNH,D-Tyr1,Arg(Me)9]MS10
B10: Compound No. 87: des(4-5)-Boc-MS10 (peptide)
peptide: Boc-YNWFGLRF-NH2
SMILES: CC(C)C[C@H](NC(=O)CNC(=O)[C@H](Cc1ccccc1)NC(=O)[C@H](Cc1c[nH]c2ccccc12)NC(=O)[C@H](CC(N)=O)NC(=O)[C@H](Cc1ccc(O)cc1)NC(=O)OC(C)(C)C)C(=O)N[C@@H](CCCNC(=N)N)C(=O)N[C@@H](Cc1ccccc1)C(N)=O
B11: Compound No. 207: [D-Tyr1,Ser4,Arg(Me)9]MS10 (peptide)
peptide: [dY]NWSSFGL[Arg(Me)]F-NH2
modifications: N-terminus assumed
SMILES: CNC(=N)NCCC[C@H](NC(=O)[C@H](CC(C)C)NC(=O)CNC(=O)[C@H](Cc1ccccc1)NC(=O)[C@H](CO)NC(=O)[C@H](CO)NC(=O)[C@H](Cc1c[nH]c2ccccc12)NC(=O)[C@H](CC(N)=O)NC(=O)[C@H](N)Cc1ccc(O)cc1)C(=O)N[C@@H](Cc1ccccc1)C(N)=O
B12: Compound No. 209: [D-Tyr1,Gln4,Arg(Me)9]MS10 (peptide)
peptide: [dY]NWQSFGL[Arg(Me)]F-NH2
modifications: N-terminus assumed
SMILES: CNC(=N)NCCC[C@H](NC(=O)[C@H](CC(C)C)NC(=O)CNC(=O)[C@H](Cc1ccccc1)NC(=O)[C@H](CO)NC(=O)[C@H](CCC(N)=O)NC(=O)[C@H](Cc1c[nH]c2ccccc12)NC(=O)[C@H](CC(N)=O)NC(=O)[C@H](N)Cc1ccc(O)cc1)C(=O)N[C@@H](Cc1ccccc1)C(N)=O
B13: Compound No. 173: [D-Tyr1,Ala7,Arg(Me)9]MS10 (peptide)
peptide: [dY]NWNSFAL[Arg(Me)]F-NH2
modifications: N-terminus assumed
SMILES: CNC(=N)NCCC[C@H](NC(=O)[C@H](CC(C)C)NC(=O)[C@H](C)NC(=O)[C@H](Cc1ccccc1)NC(=O)[C@H](CO)NC(=O)[C@H](CC(N)=O)NC(=O)[C@H](Cc1c[nH]c2ccccc12)NC(=O)[C@H](CC(N)=O)NC(=O)[C@H](N)Cc1ccc(O)cc1)C(=O)N[C@@H](Cc1ccccc1)C(N)=O

target: T1, human OT7T175 (metastin receptor) (human, UniProt Q969F8 1-398); test: cell-based or functional assay
T1 sequence (Q969F8 whole entry L364H): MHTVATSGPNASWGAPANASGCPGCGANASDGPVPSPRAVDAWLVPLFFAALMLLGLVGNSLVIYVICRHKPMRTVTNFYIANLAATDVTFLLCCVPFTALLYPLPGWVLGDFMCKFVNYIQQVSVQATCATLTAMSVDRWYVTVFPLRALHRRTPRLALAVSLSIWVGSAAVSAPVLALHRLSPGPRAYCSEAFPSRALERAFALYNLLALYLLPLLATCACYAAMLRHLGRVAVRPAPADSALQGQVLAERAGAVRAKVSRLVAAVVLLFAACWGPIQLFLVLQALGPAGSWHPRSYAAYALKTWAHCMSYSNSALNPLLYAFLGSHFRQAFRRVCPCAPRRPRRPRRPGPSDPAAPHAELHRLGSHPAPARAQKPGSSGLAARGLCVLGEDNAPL

Row | Binder | intracellular Ca ion level-increasing activity (FLIPR)
1 | Fmoc-NSFGL[Arg(Me)]F-NH2 [Compound No. 144: des(1-3)-Fmoc-[Arg(Me)9]MS10] | 1 specific activity to metastin (1-54)
2 | YNWNSFGLRW-NH2 [Compound No. 134: [Trp10]MS10] | 30 specific activity to metastin (1-54)
3 | B1 | 1 specific activity to metastin (1-54)
4 | B2 | 2 specific activity to metastin (1-54)
5 | B3 | 10 specific activity to metastin (1-54)

target: T1, human OT7T175 (metastin receptor); test: FMAT competition with Cy-5-labeled metastin (40-54), hOT7T175-expressed CHO cells

Row | Binder | IC50
6 | {4‑Imidazoleacetyl}-NSF[azaGly]L[Arg(Me)]F-NH2 [Compound No. 323: des(1-3)-4-Imidazoleacetyl-[AzaGly7,Arg(Me)9]MS10] | 280 nM
7 | YNWNSFGLXF (Nar9; C-terminal amide) [Compound No. 310: [Nar9]MS10] | 310 nM
8 | B4 | 0.41 nM
9 | B5 | 4.4 nM
10 | B6 | 470 nM
11 | YNWNSFGLXF (Har(Me)9; C-terminal amide) [Compound No. 312: [Har(Me)9]MS10] | 100 nM
12 | Y[dN][4Pal]NSF[azaGly]L[Arg(Me)]F-NH2 [Compound No. 304: [D-Asn2,Pya(4) 3,AzaGly7,Arg(Me)9]MS10] | 5 nM
13 | YNWNSFGLXF (Nar(Me)9; C-terminal amide) [Compound No. 311: [Nar(Me)9]MS10] | 470 nM
14 | B7 | 2.1 nM
15 | B8 | 15 nM
16 | [dY]N[d4Pal]NSF[azaGly]L[Arg(Me)]F-NH2 [Compound No. 302: [D-Tyr1,D-Pya(4) 3,AzaGly7,Arg(Me)9]MS10] | 7.7 nM
17 | YNWNSFGLRW-NH2 [Compound No. 134: [Trp10]MS10] | 110 nM
18 | [dY]NWNTF[azaGly]L[Arg(Me)]F-NH2 [Compound No. 297: [D-Tyr1,Thr5,AzaGly7,Arg(Me)9]MS10] | 0.93 nM
19 | B1 | 260 nM
20 | B2 | 160 nM
21 | [dY][dN]WNTF[azaGly]L[Arg(Me)]F-NH2 [Compound No. 298: [D-Tyr1,D-Asn2,Thr5,AzaGly7,Arg(Me)9]MS10] | 0.25 nM
22 | [dY][dN]TNSF[azaGly]L[Arg(Me)][Phe(4-F)]-NH2 [Compound No. 316: [D-Tyr1,D-Asn2,Thr3,AzaGly7,Arg(Me)9,Phe(4F)10]MS10] | 26 nM
23 | B3 | 420 nM
24 | B9 | 14 nM

target: human OT7T175 (metastin receptor) (human) (UniProt Q969F8); test: cell-based or functional assay
Sequence (Q969F8 whole entry L364H): as above

Row | Binder | intracellular Ca ion level-increasing activity (FLIPR) (specific activity to metastin (1-54))
25 | B10 | 1
26 | B11 | 0.5
27 | YNWNSFGL[Lys(Me2)]F-NH2 [Compound No. 98: [Lys(Me2)9]MS10] | 0.5
28 | B12 | 0.5
29 | YNWFGLRF-NH2 [Compound No. 88: des(4-5)-MS10] | 1
30 | B13 | 1
31 | YNWNSXGLRF (D-Tyr1; Cha6; Arg(Me)9; C-terminal amide) [Compound No. 172: [D-Tyr1,Cha6,Arg(Me)9]MS10] | 1

target: T1, human OT7T175 (metastin receptor); test: cell-based or functional assay; remark: another data set of the same source

Row | Binder | intracellular Ca ion level-increasing activity (FLIPR)
32 | {4‑Imidazoleacetyl}-NSF[azaGly]L[Arg(Me)]F-NH2 [Compound No. 323: des(1-3)-4-Imidazoleacetyl-[AzaGly7,Arg(Me)9]MS10] | 1 specific activity to metastin (1-54)
33 | YNWNSFGLXF (Nar9; C-terminal amide) [Compound No. 310: [Nar9]MS10] | 3 specific activity to metastin (1-54)
34 | B4 | 2 specific activity to metastin (1-54)
35 | B5 | 2 specific activity to metastin (1-54)
36 | B6 | 1 specific activity to metastin (1-54)
37 | YNWNSFGLXF (Har(Me)9; C-terminal amide) [Compound No. 312: [Har(Me)9]MS10] | 3 specific activity to metastin (1-54)
38 | Y[dN][4Pal]NSF[azaGly]L[Arg(Me)]F-NH2 [Compound No. 304: [D-Asn2,Pya(4) 3,AzaGly7,Arg(Me)9]MS10] | 3 specific activity to metastin (1-54)
39 | YNWNSFGLXF (Nar(Me)9; C-terminal amide) [Compound No. 311: [Nar(Me)9]MS10] | 1 specific activity to metastin (1-54)
40 | B7 | 1 specific activity to metastin (1-54)
41 | B8 | 1 specific activity to metastin (1-54)
42 | [dY]N[d4Pal]NSF[azaGly]L[Arg(Me)]F-NH2 [Compound No. 302: [D-Tyr1,D-Pya(4) 3,AzaGly7,Arg(Me)9]MS10] | 2 specific activity to metastin (1-54)
43 | [dY]NWNTF[azaGly]L[Arg(Me)]F-NH2 [Compound No. 297: [D-Tyr1,Thr5,AzaGly7,Arg(Me)9]MS10] | 1 specific activity to metastin (1-54)
44 | [dY][dN]WNTF[azaGly]L[Arg(Me)]F-NH2 [Compound No. 298: [D-Tyr1,D-Asn2,Thr5,AzaGly7,Arg(Me)9]MS10] | 5 specific activity to metastin (1-54)
45 | [dY][dN]TNSF[azaGly]L[Arg(Me)][Phe(4-F)]-NH2 [Compound No. 316: [D-Tyr1,D-Asn2,Thr3,AzaGly7,Arg(Me)9,Phe(4F)10]MS10] | 1 specific activity to metastin (1-54)
46 | B9 | 3 specific activity to metastin (1-54)
47 | [dY]NWNSFGL[Arg(Me)]F-NH2 (also: Phe6-Gly7 bond replaced by NHCO (retro-inverso)) [Compound No. 319: [6Ψ7,NHCO,D-Tyr1,Arg(Me)9]MS10] | 3 specific activity to metastin (1-54)
